According to patent US20210388087A1:

Molecular target: Human CD3eg linker (human)
Experiment: SPR; fold vs parent H183/L072

Human CD3eg linker (human), sequence (chain, as listed by the source limits assumed): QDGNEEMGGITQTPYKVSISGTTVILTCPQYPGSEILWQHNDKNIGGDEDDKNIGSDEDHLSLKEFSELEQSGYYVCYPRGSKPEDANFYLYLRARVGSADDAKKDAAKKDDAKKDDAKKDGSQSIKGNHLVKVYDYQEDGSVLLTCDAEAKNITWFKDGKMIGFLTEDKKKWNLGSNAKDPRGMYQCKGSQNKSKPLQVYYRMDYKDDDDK

| fold change of affinity [fold] | Binder |
| --- | --- |
| 0 | H183/L072 VL Q90M (antibody, name in Kabat numbering, V domains shown) VH: QVQLVESGGGLVQPGRSLRLSCAASGFTFSNAWMHWVRQAPGKGLEWVAQIKDKGNAYAAYYAPSVKGRFTISRDDSKNSIYLQMNSLKTEDTAVYYCHYVHYASASTVLPAFGVDAWGQGTTVTVSS VL: DIVMTQSPLSLPVTPGEPASISCQASQELVHMNRNTYLHWYQQKPGQAPRLLIYKVSNRFPGVPDRFSGSGSGTDFTLKISRVEAEDVGVYYCAMGTSVPFTFGQGTKLEIK |
| 0 | H183/L072 VL F96M (antibody, name in Kabat numbering, V domains shown) VH: QVQLVESGGGLVQPGRSLRLSCAASGFTFSNAWMHWVRQAPGKGLEWVAQIKDKGNAYAAYYAPSVKGRFTISRDDSKNSIYLQMNSLKTEDTAVYYCHYVHYASASTVLPAFGVDAWGQGTTVTVSS VL: DIVMTQSPLSLPVTPGEPASISCQASQELVHMNRNTYLHWYQQKPGQAPRLLIYKVSNRFPGVPDRFSGSGSGTDFTLKISRVEAEDVGVYYCAQGTSVPMTFGQGTKLEIK |
| 0 | H183/L072 VL V51P (antibody, name in Kabat numbering, V domains shown) VH: QVQLVESGGGLVQPGRSLRLSCAASGFTFSNAWMHWVRQAPGKGLEWVAQIKDKGNAYAAYYAPSVKGRFTISRDDSKNSIYLQMNSLKTEDTAVYYCHYVHYASASTVLPAFGVDAWGQGTTVTVSS VL: DIVMTQSPLSLPVTPGEPASISCQASQELVHMNRNTYLHWYQQKPGQAPRLLIYKPSNRFPGVPDRFSGSGSGTDFTLKISRVEAEDVGVYYCAQGTSVPFTFGQGTKLEIK |
| 0 | H183/L072 VL A89P (antibody, name in Kabat numbering, V domains shown) VH: QVQLVESGGGLVQPGRSLRLSCAASGFTFSNAWMHWVRQAPGKGLEWVAQIKDKGNAYAAYYAPSVKGRFTISRDDSKNSIYLQMNSLKTEDTAVYYCHYVHYASASTVLPAFGVDAWGQGTTVTVSS VL: DIVMTQSPLSLPVTPGEPASISCQASQELVHMNRNTYLHWYQQKPGQAPRLLIYKVSNRFPGVPDRFSGSGSGTDFTLKISRVEAEDVGVYYCPQGTSVPFTFGQGTKLEIK |
| 0 | H183/L072 VL K50P (antibody, name in Kabat numbering, V domains shown) VH: QVQLVESGGGLVQPGRSLRLSCAASGFTFSNAWMHWVRQAPGKGLEWVAQIKDKGNAYAAYYAPSVKGRFTISRDDSKNSIYLQMNSLKTEDTAVYYCHYVHYASASTVLPAFGVDAWGQGTTVTVSS VL: DIVMTQSPLSLPVTPGEPASISCQASQELVHMNRNTYLHWYQQKPGQAPRLLIYPVSNRFPGVPDRFSGSGSGTDFTLKISRVEAEDVGVYYCAQGTSVPFTFGQGTKLEIK |
| 0 | H183/L072 VL G91M (antibody, name in Kabat numbering, V domains shown) VH: QVQLVESGGGLVQPGRSLRLSCAASGFTFSNAWMHWVRQAPGKGLEWVAQIKDKGNAYAAYYAPSVKGRFTISRDDSKNSIYLQMNSLKTEDTAVYYCHYVHYASASTVLPAFGVDAWGQGTTVTVSS VL: DIVMTQSPLSLPVTPGEPASISCQASQELVHMNRNTYLHWYQQKPGQAPRLLIYKVSNRFPGVPDRFSGSGSGTDFTLKISRVEAEDVGVYYCAQMTSVPFTFGQGTKLEIK |
| 0 | H183/L072 VL P95M (antibody, name in Kabat numbering, V domains shown) VH: QVQLVESGGGLVQPGRSLRLSCAASGFTFSNAWMHWVRQAPGKGLEWVAQIKDKGNAYAAYYAPSVKGRFTISRDDSKNSIYLQMNSLKTEDTAVYYCHYVHYASASTVLPAFGVDAWGQGTTVTVSS VL: DIVMTQSPLSLPVTPGEPASISCQASQELVHMNRNTYLHWYQQKPGQAPRLLIYKVSNRFPGVPDRFSGSGSGTDFTLKISRVEAEDVGVYYCAQGTSVMFTFGQGTKLEIK |
| 0 | H183/L072 VL S52P (antibody, name in Kabat numbering, V domains shown) VH: QVQLVESGGGLVQPGRSLRLSCAASGFTFSNAWMHWVRQAPGKGLEWVAQIKDKGNAYAAYYAPSVKGRFTISRDDSKNSIYLQMNSLKTEDTAVYYCHYVHYASASTVLPAFGVDAWGQGTTVTVSS VL: DIVMTQSPLSLPVTPGEPASISCQASQELVHMNRNTYLHWYQQKPGQAPRLLIYKVPNRFPGVPDRFSGSGSGTDFTLKISRVEAEDVGVYYCAQGTSVPFTFGQGTKLEIK |
